Assay results: patent publication US20150174289A1 (OMRIX BIOPHARMACEUTICALS, published 2015)

Target: T1, fibrin monomers (UniProt P02671 36-629; P02675 45-491; P02679 27-437)
T1 sequence (looked up) 1: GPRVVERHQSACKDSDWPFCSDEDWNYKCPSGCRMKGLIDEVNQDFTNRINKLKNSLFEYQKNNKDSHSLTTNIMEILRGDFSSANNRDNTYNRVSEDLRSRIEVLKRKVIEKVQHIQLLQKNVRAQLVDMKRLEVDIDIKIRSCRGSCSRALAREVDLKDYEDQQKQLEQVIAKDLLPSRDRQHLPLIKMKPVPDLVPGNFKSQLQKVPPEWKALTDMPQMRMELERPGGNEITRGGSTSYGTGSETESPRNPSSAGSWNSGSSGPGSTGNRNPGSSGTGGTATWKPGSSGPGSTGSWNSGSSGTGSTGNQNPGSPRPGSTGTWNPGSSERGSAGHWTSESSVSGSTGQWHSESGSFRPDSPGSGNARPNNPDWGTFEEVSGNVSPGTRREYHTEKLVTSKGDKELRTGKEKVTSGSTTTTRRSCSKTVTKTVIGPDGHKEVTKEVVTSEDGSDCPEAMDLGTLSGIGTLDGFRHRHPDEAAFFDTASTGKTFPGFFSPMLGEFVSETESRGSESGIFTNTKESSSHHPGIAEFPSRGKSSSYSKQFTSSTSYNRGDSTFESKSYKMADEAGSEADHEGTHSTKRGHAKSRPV
T1 sequence (looked up) 2: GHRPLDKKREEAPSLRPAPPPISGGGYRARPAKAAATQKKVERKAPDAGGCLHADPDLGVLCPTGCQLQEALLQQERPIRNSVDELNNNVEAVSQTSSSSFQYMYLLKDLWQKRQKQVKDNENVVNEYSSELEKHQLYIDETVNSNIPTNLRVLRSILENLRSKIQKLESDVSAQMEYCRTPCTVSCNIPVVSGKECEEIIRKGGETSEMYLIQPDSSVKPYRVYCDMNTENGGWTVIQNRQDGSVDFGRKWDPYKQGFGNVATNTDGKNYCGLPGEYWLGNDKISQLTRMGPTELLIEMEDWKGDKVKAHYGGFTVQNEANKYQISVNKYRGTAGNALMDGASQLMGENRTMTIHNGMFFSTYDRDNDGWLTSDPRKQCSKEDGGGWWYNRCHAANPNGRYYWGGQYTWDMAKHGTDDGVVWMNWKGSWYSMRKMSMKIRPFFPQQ
T1 sequence (looked up) 3: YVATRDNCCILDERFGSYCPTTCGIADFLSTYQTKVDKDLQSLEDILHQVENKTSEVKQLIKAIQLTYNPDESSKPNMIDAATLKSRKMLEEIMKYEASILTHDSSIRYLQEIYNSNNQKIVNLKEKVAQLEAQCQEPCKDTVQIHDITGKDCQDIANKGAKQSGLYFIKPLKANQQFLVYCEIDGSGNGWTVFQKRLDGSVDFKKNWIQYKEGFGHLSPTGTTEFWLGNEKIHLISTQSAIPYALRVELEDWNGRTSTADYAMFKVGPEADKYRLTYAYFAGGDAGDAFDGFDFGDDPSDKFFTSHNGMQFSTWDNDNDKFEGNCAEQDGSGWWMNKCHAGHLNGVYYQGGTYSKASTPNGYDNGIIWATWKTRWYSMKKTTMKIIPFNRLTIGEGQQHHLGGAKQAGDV
Assay: cell-based or functional assay

Time to clot (1% fibrin monomers, 1 mM GPRP, 34 fold GPRP:fibrin): < 5 min | Time to clot (1% fibrin monomers, 5 mM GPRP, 170 fold GPRP:fibrin): 4 h | Time to clot (1.5% fibrin monomers, 20 mM GPRP, 453 fold GPRP:fibrin): > 2 weeks | Time to clot (3% fibrin monomers, 0.1 mM GPRP, 1.1 fold GPRP:fibrin): 5 s | Time to clot (3% fibrin monomers, 0.2 mM GPRP, 2.3 fold GPRP:fibrin): 7 s | Time to clot (3% fibrin monomers, 0.5 mM GPRP, 5.7 fold GPRP:fibrin): 11 s | Time to clot (3% fibrin monomers, 1 mM GPRP, 11.3 fold GPRP:fibrin): 13 s | Time to clot (3% fibrin monomers, 1.5 mM GPRP, 17 fold GPRP:fibrin): 22 s | Time to clot (3% fibrin monomers, 2 mM GPRP, 22.7 fold GPRP:fibrin): 28 s | Time to clot (3% fibrin monomers, 3 mM GPRP, 34 fold GPRP:fibrin): 2.5 min | Time to clot (3% fibrin monomers, 4 mM GPRP, 45 fold GPRP:fibrin): 8 min | Time to clot (3% fibrin monomers, 5 mM GPRP, 56.7 fold GPRP:fibrin): 15 min | Time to clot (3.5% fibrin monomers, 40 mM GPRP, 389 fold GPRP:fibrin): > 2 weeks
Binder: GPRP [GPRP peptide (Gly-Pro-Arg-Pro)]
